From PMC9942304, “Identification of RimR2 as a positive pathway-specific regulator of rimocidin biosynthesis in Streptomyces rimosus M527”

T1: RimR2 (Streptomyces rimosus M527, UniProt A0ABY3YSD1 1-918)
T1 sequence: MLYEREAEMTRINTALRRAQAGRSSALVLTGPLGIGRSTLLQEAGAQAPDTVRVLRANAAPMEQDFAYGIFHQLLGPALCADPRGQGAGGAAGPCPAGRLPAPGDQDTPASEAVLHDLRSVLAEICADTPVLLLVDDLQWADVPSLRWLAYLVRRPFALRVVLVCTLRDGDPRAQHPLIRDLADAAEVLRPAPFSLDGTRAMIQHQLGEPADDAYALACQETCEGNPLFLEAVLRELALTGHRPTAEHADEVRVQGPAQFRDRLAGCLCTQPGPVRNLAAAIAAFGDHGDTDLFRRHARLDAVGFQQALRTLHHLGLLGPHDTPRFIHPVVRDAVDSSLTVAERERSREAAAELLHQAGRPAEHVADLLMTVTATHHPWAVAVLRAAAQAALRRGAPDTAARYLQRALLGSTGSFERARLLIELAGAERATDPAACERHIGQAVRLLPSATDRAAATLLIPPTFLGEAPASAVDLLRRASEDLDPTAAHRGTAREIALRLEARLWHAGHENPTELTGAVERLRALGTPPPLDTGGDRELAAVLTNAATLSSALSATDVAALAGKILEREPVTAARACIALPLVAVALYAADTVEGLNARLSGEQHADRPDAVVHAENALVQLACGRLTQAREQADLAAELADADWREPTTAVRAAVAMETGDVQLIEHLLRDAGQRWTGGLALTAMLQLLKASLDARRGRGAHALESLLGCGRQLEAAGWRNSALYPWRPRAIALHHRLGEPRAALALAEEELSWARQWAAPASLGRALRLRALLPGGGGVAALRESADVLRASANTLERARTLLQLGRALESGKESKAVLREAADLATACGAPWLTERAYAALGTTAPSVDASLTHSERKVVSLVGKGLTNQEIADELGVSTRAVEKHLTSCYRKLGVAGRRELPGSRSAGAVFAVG

B1: rimC promoter probe (dsDNA)
DNA 1: CCCCATCCTGATCACAAAAGACTAAGGGAAATGTTAAAGGTACGGTGTGC
DNA 2: GCACACCGTACCTTTAACATTTCCCTTAGTCTTTTGTGATCAGGATGGGG
B2: rimA promoter probe (dsDNA)
DNA 1: ATCACCGTGCACGAGGGCTGACGCCCGCCCGGGCAGGAGCTCGTGTCCGA
DNA 2: TCGGACACGAGCTCCTGCCCGGGCGGGCGTCAGCCCTCGTGCACGGTGAT
B3: rimR2 promoter probe (dsDNA)
DNA 1: TACCTACAAGAAATTGCGTATCACCTCACGCAAGGAACTCCGCGCGCGGA
DNA 2: TCCGCGCGCGGAGTTCCTTGCGTGAGGTGATACGCAATTTCTTGTAGGTA

Legend:
RimR2 [1] = target: T1, RimR2; assay: EMSA; competed by 100-fold unlabeled probe; LightShift Chemiluminescent EMSA Kit (Thermo); 0.04 pmol/ul biotin probe, 10 ug RimR2; buffer, salt, pH and temperature not stated; conditions: protein: recombinant; tags: His6 (pET32a, EcoRV/BamHI); blunt
RimR2 [2] = target: T1, RimR2; assay: EMSA; LightShift Chemiluminescent EMSA Kit (Thermo); 0.04 pmol/ul biotin probe, 10 ug RimR2; buffer, salt, pH and temperature not stated; conditions: protein: recombinant; tags: His6 (pET32a, EcoRV/BamHI); blunt

Binder | binding result (RimR2 [1]) | binding result (RimR2 [2])
B1 | binds | 
B2 | binds | 
B3 |  | binds
